Experimental data published in a protein production outcome set (Wang et al. 2014).

Experiment: label from the status in PepcDB records

Q: Which protein production does the source give for “MAFNHLPAGVHDALGPLSVMPVTHSLPMAKNHRPDRSSSDTASSPSPGTVLDRLASGPSRASRITHTEHLPPREGRHAVWPDRIRSEVIAAVQAAGIEHPWAHQARAAEHALDGESVVVATGTASGKSLAYLVPALSALLDGSEAPNGRGATALYLAPTKALAADQCRSVKELSQPLGTAVRPAVYDGDTPVEEREWVRQYANYVLTNPDMLHRGILPAHPRWSSFLRALRYVVIDECHTYRGVFGSHVAQVLRRLRRLCARYGASPVFLLASATAAEPSVAASRLTGLRVVEVADDASPRGELVFALWEPPLTELHGEKGAPVRRTATAETADLLTDLTLQGVRSVAFVRSRRGAELIAVIAQERLAEIDRSLARRVAAYRGGYLPEERRALERALHSGELLGLAATTALELGVDVSGLDAVVIAGYPGTRASLWQQAGRAGRSGQGALAILVARDDPLDTFLVHHPEALFDQPVESTVLDPDNPYVLAPHLCAAAEELPLVEEDLALFGPSTADLLPQLEAAKLLRRRTKAWHWTRRERAADLTDIRGEGGRPVQIVEAGTGRLLGTVDAGAAHTTVHEGAVHLHQGRTYLVRELDLEDSVALVEEANPSYSTVARDTTAISVLETDVEVPWGEGRLCYGSVEVTNQVVSFLRRRLITGEVLGETKLDLPPRTLRTRAVWWTVTEDQLDAARITPEILGGALHAAEHASIGMLPLFATCDRWDIGGVSVPLHPDTLLPTVFVYDGHPGGAGFAERAFHTARDWLTATRQAIASCECDAGCPSCIQSPKCGNGNDPLHKRGAVRLLSVLLRGAAEQEKAGLPKEPARAAESSAD” here?
A: failed

Q: With “MAGAAQSHAVPGFRRNMVTICAMTATIMQALDTTIANVALPYMQGSLSASQDQINWVLTSYIVAAAIMTAPVGWIANRFGRKRIFIICSAGFTIASVMCGLAQDITQMVVFRLLQGVFGAALVPLSQAVMLDSYALHERAKAMSIWGMGVMMGPIMGPSLGAWLTETYSWHWVFFVNLPFGAITVLGLAMFMDETDKNQELKFDWFGFAALAVGIGAMQLALDRGEQLDWFNSPEIIIESIVSVVGFYYFFAHSFTTERPFIQFAIFKDRNFVGGVVFMTVMGLVLFSTMALSSPFLQNVEGYPIMTAGLLLASRGCGTFVAMMIVGRIMRYIEARTLIATGLSLTCASLYVMTGWTDQTSVSSVVVTSIIQGFGFGLVFVPLSTVAFMTLPGQLRTDGTAMLTLVRNVASSVGISVVIAKLSSGTTTAHAILTEHINPFNNALQMPNVTGMIDLSTTTGKAMMDAIVTMQAQIIAFSHDYAMVMFLTAAAVPMAIIIGSTKAALRKQSEAPADHAAVME” as the sequence, how does the protein production read?
A: failed

Q: For “MAGAMRKMAVYLGLVEDDGYDGRGFDPDDDFEPELDPEPERDRRRHEPPHQSHQALHPQRDESVRVVQPPMQRDPVPHSASLPAESVRPARIAPVASITQERQSLEKNAPVIMPKVVSEREPYRITTLHPRTYNEARTIGEHFREGTPVIMNLTEMDDTDAKRLVDFAAGLVFGLHGSIERVTQKVFLLSPANVDVTAEDKARIAEGGFFNQSLEHHHHHH”, which protein production is on record?
A: not failed

Q: With “MAGDQELELRFDVPLYTLAEASRYLVVPRATLATWADGYERRPANAPAVQGQPIITALPHPTGSHARLPFVGIAEAYVLNAFRRAGVPMQRIRPSLDWLIKNVGPHALASQDLCTDGAEVLWRFAERSGEGSPDDLVVRGLIVPRSGQYVFKEIVEHYLQQISFADDNLASMIRLPQYGDANVVLDPRRGYGQPVFDGSGVRVADVLGPLRAGATFQAVADDYGVTPDQLRDALDAIAA” as the sequence, how does the protein production read?
A: not failed

Q: With “MAGGLGKCSKIRHIVRLRQMLRRWRDQARMSSSFSRCVPSDVPSGHVAVYVGSSCRRFVVRATYLNHPVLRNLLVQAEEEFGFVNQGPLVIPCEESVFEESIRFISRSDSTRSRRFTCPDDFQKNCHVVGIRSKLDLWIESRPLLHGVTEKAVW” as the sequence, how does the protein production read?
A: failed

Q: For “MAGIRLLPEEPETTPQQQARAAAAVTTTTTDSLASDDDRSIAADSWSIKSEYGSTLDDDQRHADAAEALSSANFRVSSDYSSDKEEPDADGGGQSMLGLQSYWDAAYSDELTNFREHGHAGEVWFGDDVMEIVTSWTKDLCVEISQRNMSVSENDVTTEVNDQADKYLSSWNVLDLGTGNGLLLHQLAKEGFSDLTGTDYSDGAVELAQHLSQRDGFPNIRFMVDDILDTKLEQQFKLVMDKGTLDAIGLHPDGPVKRVMYWDSVSKLVAPGGILVITSCNHTKDELVEEVENFNIRKSNLCRGDGNDANNVLSSGSEAASRIDQPPFEYLSHVRTYPTFMFSGSVGSRVATVAFLRK”, which protein production is on record?
A: failed

Q: With “MAGLAARLVLLAGAAALASGSQGDREPVYRDCVLQCEEQNCSGGALNHFRSRQPIYMSLAGWTCRDDCKYECMWVTVGLYLQEGHKVPQFHGKWPFSRFLFFQEPASAVASFLNGLASLVMLCRYRTFVPASSPMYHTCVAFAWVSLNAWFWSTVFHTRDTDLTEKMDYFCASTVILHSIYLCCVRTVGLQHPAVVSAFRALLLLMLTVHVSYLSLIRFDYGYNLVANVAIGLVNVVWWLAWCLWNQRRLPHVRKCVVVVLLLQGLSLLELLDFPPLFWVLDAHAIWHISTIPVHVLFFSFLEDDSLYLLKESEDKFKLD” as the sequence, how does the protein production read?
A: failed

Q: For “MAGNSLVLPIVLWGRKAPTHCISSILLTDDGGTIVTGCHDGQICLWDVSVELEVNPRALLFGHTASITCLSKACASGDKRYTVSASANGEMCLWDVNDGRCIEFTKLACTHTGIQFYQFSVGNQQEGRLLCHGHYPEILVVDATSLEVLYSLVSKISPDWISSMSIIRSQRTQEDTVVALSVTGILKVWIVTSEMSGMQDTEPIFEEESKPIYCQNCQSISFCAFTQRSLLVVCSKYWRVFDAGDYSLLCSGPSENGQTWTGGDFVSADKVIIWTENGQSYIYKLPASCLPASDSFRSDVGKAVENLIPPVQHSLLDQKDKELVICPPVTRFFYGCKEYLHKLLIQGDSSGRLNIWNIADIAEKQEADEGLKMTTCISLQEAFDKLKPCPAGIIDQLSVIPNSNEPLKVTASVYIPAHGRLVCGREDGSIIIVPATQTAIVQLLQGEHMLRRGWPPHRTLRGHRNKVTCLLYPHQVSARYDQRYLISGGVDFSVIIWDIFSGEMKHIFCVHGGEITQLLVPPENCSVSRFI”, which protein production is on record?
A: failed

Q: With “MAGRRMKRLRAFFYVQHLLGIGHLARASRIAAALADDGFDITVVTGGPPIAGFPGQGVKSVTLPPVTSGDNGFSGLVDLQGKPIDDDFKKRRSEMLLQAFRDCRPDIVIVEAFPFGRRQMRFELLPLLETIEATSPRPLLATSVRDILQERVKPGRNEETVDLINRHFDLVMVHGDPAFTTIDKTFPLAGAITAEVTYTGLVGAPPSPAAAERFDILVSVGGGAAGRRLVSSTLAAARIANGWKWCLITGPNLPKDEFDVIACDATPGLSIFRFREDFASLLTGARLSVSQAGYNTVCDVLRAGCRSLLVPFAAGGETEQTVRALMLEELGLATVLTENDLTPDGLAQAIEQALAGPTPSAHRLDLEGARHSAQILRERYRTWSLKMGSGFGKEHDQTDDGS” as the sequence, how does the protein production read?
A: failed

Q: Which protein production does the source give for “MAGSVACRLRPGMAAGGTGMKRYVIFAAIGPLIGGLLLLFATTYQSGYWAHTNLTEVQKFFVVLFKSLQYSYLFGLLPALMMAAIDEIICHIRRVGPGGRVVIVGVIGFLATAFMYGNRGADAGVLQFVLYGLVGLVPATLSSWLANKFCAPVTAETKPASA” here?
A: failed

Q: With “MAGSVADSDAVVKLDDGHLNNSLSSPVQADVYFPRLIVPFCGHIKGGMRPGKKVLVMGIVDLNPESFAISLTCGDSEDPPADVAIELKAVFTDRQLLRNSCISGERGEEQSAIPYFPFIPDQPFRVEILCEHPRFRVFVDGHQLFDFYHRIQTLSAIDTIKINGDLQITKLG” as the sequence, how does the protein production read?
A: failed

Q: Which protein production does the source give for “MAGTDFEPDVKVRSREYRIGCVGAGMIMAECHLAAYAQAGFPVVAIASRTKASAEKVARRWDIPIVHDTPEQLIEDSKVEIVDLAFPPDQQPALIRHALKQPHIKAILAQKPLALTVEEAIKLRDEAAKSGKILSVNQNMRYDQSMRVLKQIIDSGALGDIVFAQIDMHAIPHWQAFLADYDRLTLANMSVHHLDVLRFLFGDPHEITTLTRKDPRTTFDHSDGITVSTLRFPSGVLAVSLEDVWSGPREQGYRDDQHINWRVDGTKGVAKGTIGWPTGVASTLTYASTQTTGGEWVTPSWDTMWFPHAFIGVMEQLQYAVKTGTPPALSVADNVKTMALVEAGYRSMAEGRTVRLSEISTN” here?
A: failed

Q: For “MAGTIAIKNGYVFDPLNEINGEKMDIFIRDGKVVKELSASEMKTSRVIDASGMTVMPGGVDSHSHVAGAKVNAGRSMRPEDHYKANLKKTPLTHSGSGYTVPSVYKQGYDYAAMGYTTVFEAAVPPLEARHTHEEMRATPLLDMGGYLVLGNNFFLMRYLRDGDMEKAAAYVAWMMKTHKTYGIKCVNPAGVENWAWGKNVSTLDETNIHFEITPREVIKGLTEVNETLGMPMPVHLHANNLGHPGCYAITKDSLKIPDGVKTKQNMAVEWAETKMDLSRDRSVYLTHLMFNSFAGTTWGDCESGVKDIADYINNKDHVVIDSGCTPFGEATVMTGDGPAIHDLYTLTGNKWSNTDVEMECGSGVLPFTYLKSNPVHSLQWAMGLECLLLIKDPWKTIMTTDSPNGGPFTKYPEVMTWIMSEAFRKQTFSECHKWANDRSELGGINRELSLYDLAILTRANPAKTIGMAHRKGSLGVGADGDVTVYNINPQQLDANNYEALLRTFRKAEYTVKGGEIVAVKGEIVSLPEKRTYYSEVHVENEREKEMLVDVKEWFRYYTLGFANYSTPEKYLANPTPIQVNSER”, which protein production is on record?
A: failed

Q: With “MAGYVGDVAIAYDRDLGHVLFEQYASDIARRTAGKPVRDVLEVASGTGIVTRQLRNVLPGDAQLTAIDISDSMMEVARTKFLPHEQVTFQVANAVALPFDDRAFDTVVCQFGVMFFDKDKAFQETHRVLRQGGRYLFSVWDSRDYNPYASLTFEVMKQFFPSDPPRFLESTVSSFEIDPVKERLIRAGFEQISISVQRRIYDIPDIRAFARGLIFSPIINEIRERGEVDPDDIVEALVKIFIGEYGSNPTRFPMQAILFETEKPLEHHHHHH” as the sequence, how does the protein production read?
A: failed

Q: For “MAHHTKETMELIKELVSIPSPSGNTAKIINFIENYVSEWNVETKRNNKGALILTVKGKNDAQHRLLTAHVDTLGAMVKEIKPDGRLSLSMIGGFRWNSVEGEYCEIETSSGKTYTGTILMHQTSVHVYKDAGEAKRDEKNIEVRIDERVFSADEVRELGIEVGDFVSFDPRVQITESGYIKSRHLDDKVSVAILLKLIKRLQDENVTLPYTTHFLISNNEEIGYGGNSNIPEETVEYLAVDMGALGDGQASDEYTVSICAKDSSGPYHYALRKHLVELAKTNHIEYKVDIYPYYGSDASAAIRAGFDVKHALIGAGIDSSHAFERTHESSIAHTEALVYAYVMSNLIEE”, which protein production is on record?
A: not failed

Q: With “MAHRTWGGRFGEGPDALAARFNASLAFDRALWREDLWQNRVHARMLHAVGLLSAEELEAILKGLDRIEEEIEAGTFPWREELEDVHMNLEARLTELVGPPGGKLHTARSRNDQVATDLRLYLRGAIDELLALLLALRRVLVREAEKHLDPLYVLPGYTHLQRAQPVLLAHWFLAYYEMLKRDAGRLEDAKERLNESPLGAAALAGTGFPIDRHFTARELGFKAPMRNSLDAVASRDFALEVLSALNIGMLHLSRMAEELILYSTEEFGFVEVPDAFATGSSIMPQKKNPDILELIRAKAGRVLGAFVGLSAVVKGLPLAYNKDLQEDKEPLLDALATYRDSLRLLAALLPGLKWRRERMWRAAEGGYTLATELADYLAEKGLPFREAHHVVGRLVRRLVEEGRALKDLTLEELQAHHPLFAEDALPLLRLETAIHRRRSYGGTAPEAVRERLEEAKKEVGLD” as the sequence, how does the protein production read?
A: not failed

Q: Which protein production does the source give for “MAHSGDNHSSEFCMLRSLSASIGADPLLVQGAGGNTSIKQAGVLWIKASGTWLKNARDDEIMVPVALAPLLDAVSHRSPAAEAAGQFTLADLNPRQLRPSIETTVHALLPQKIVVHVHCVETISIAVQANAEALLEGRLRGLDWAFVPYRRPGLPLAQAIAERLKPATNVLVLGNHGLVVAADTVAEAALLLQRVTGLLARQPRPAPPPDLDALLRLAAGSDYRLPASTAAHAVATDLASCRIAASGSLYPDHVIFLGVGSVIAGPGENAAAVVARTAAAPTSILFPGKGVLMRREANAGAEAMARCLADVVARVDGAARVNYLSPKENAELLNWDAEKYRQQLNREGATLQLEHHHHHH” here?
A: failed
